According to patent US20250250357A1 (NANJING ZAIMING PHARMACEUTICAL, published 2025):
Changes are numbered by the printed parent chain.

B1: S009-F7.6.17 chimeric antibody (antibody, human IgG1, kappa, V domains shown)
VH: QVQLQQSGAELARPGASVKMSCKASGYTFTTYTMHWVKQRPGQGLEWIGYISPTGDFTKYNQKFKDKATLTTDKSSNTAFMQLSSLTSEDSAVYYCARWNGTVWFAYWGQGTLVTVSA
VL: DIVMTQSQKFMSTSVGDRVTVTCKASQALGTNVAWYQQKPGQSPKVLIYSASYRYSGVPYRFAGGGSGTDFTLTITNVQSEDLAEYFCQQYNNYPLTFGAGTKLELKR
notes: Human-murine chimeric antibody, human IgG1/kappa constant regions
B2: S009-F7.2.3 chimeric antibody (antibody, human IgG1, kappa, V domains shown)
VH: ELQLVESGGDLVKPGGSLKLSCAASGFTFSSNGMSWLRQTPDKRLEWVATISSGGRYTYYPDSVKGRFTISRDNAKNTLYLQMSSLKSEDTAMYYCARRGIYDYFDCWGQGTTLTVSS
VL: DIQMTQSPASLSISVGETVTITCRASENIHSSLAWYQQKQGKSPQLLVYAATNLADGVPSRFSGSGSGSQYSLKINSLQSEDFGTYYCQHFWGTPWTFGGGTKLDIKR
notes: as for B1
B3: S009-F7.11.11 chimeric antibody (antibody, human IgG1, kappa, V domains shown)
VH: EVQLQQSGPELVKPGASVKIPCKASGYTITDYNMDWVKQSRGKSLEWIGDVFPYNGDSIYNQKFEGRATLTVDKYSSTAYMELRGLTSEDTAVYFCARRKTGTGYFDVWGTGTTVTVSS
VL: QLVLTQSPAIMSASPGEKVTLTCSASSSVSSTYLSWYLQKPGSSPKLWIYSTSNLASGVPARFSGSGSGTSYSLTISSMEAEDAASYFCHQWSSYPYTFGGGTKLEIKR
notes: as for B1
B4: S009-F7.12.13 chimeric antibody (antibody, human IgG1, kappa, V domains shown)
VH: EVQLQQSGPELVKPGASVKIPCKASGYTFTDYNMDWVKQSHGKGLEWIGDINPNTDDTIYNQKFNGKATLTVDKSSSTAYMELRSLTSEDTAVYYCSRRLIGTGYFDVWGTGTTVTVSS
VL: B3 VL with L2I, S30I, S35C, L38R, K46E, S94N, E106G, I107M
notes: as for B1
B5: F3.80.22-H5 (scFv, not shown: small tags and cut ends)
scFv: DIVMTQTPLSLPVTPGEPASISCRSSQSLEHNDGNTYLHWFLQKPGQSPQLLIYKVSNRFSGVPDRFSGSGSGTDFTLKISRVEAEDVGVYYCSQSTHVPFTFGQGTKLEIKGGGGSGGGGSGGGGSEVQLVQSGAEVKKPGATVKISCKVSGYTFTDYEIHWVQQAPGKGLEWMGAFDPEIGGSAYNQKFKDRVTITADKSTDTAYMELSSLRSEDTAVYYCTDYYGSSSGYFDVWGQGTTVTVSS
notes: also called S009-F3.80.22 humanized antibody VL1a + VH1
B6: F3.80.22-H10 (scFv, not shown: small tags and cut ends)
scFv: B5 scFv with D33N, Q43H, V151A, D204S
notes: also called S009-F3.80.22 humanized antibody VL2 + VH2
B7: F3.80.22-H2 (scFv, not shown: small tags and cut ends)
scFv: B5 scFv with D33N, V151A, D204S
notes: also called S009-F3.80.22 humanized antibody VL1 + VH2
B8: F3.80.22-H1 (scFv, not shown: small tags and cut ends)
scFv: B5 scFv with D33N
notes: also called S009-F3.80.22 humanized antibody VL1 + VH1
B9: F3.80.22-H4 (scFv, not shown: small tags and cut ends)
scFv: B5 scFv with D33N, V151A, T203S, D204S, Q239T
notes: also called S009-F3.80.22 humanized antibody VL1 + VH4
B10: F3.80.22-H7 (scFv, not shown: small tags and cut ends)
scFv: B5 scFv with V151A, D204S, Q239T
notes: also called S009-F3.80.22 humanized antibody VL1a + VH3
B11: F3.80.22-H8 (scFv, not shown: small tags and cut ends)
scFv: B5 scFv with V151A, T203S, D204S, Q239T
notes: also called S009-F3.80.22 humanized antibody VL1a + VH4
B12: F3.80.22-H6 (scFv, not shown: small tags and cut ends)
scFv: B5 scFv with V151A, D204S
notes: also called S009-F3.80.22 humanized antibody VL1a + VH2
B13: F3.80.22-H3 (scFv, not shown: small tags and cut ends)
scFv: B5 scFv with D33N, V151A, D204S, Q239T
notes: also called S009-F3.80.22 humanized antibody VL1 + VH3
B14: F3.80.22-H17 (scFv, not shown: small tags and cut ends)
scFv: EVQLVQSGAEVKKPGATVKISCKVSGYTFTDYEIHWVQQAPGKGLEWMGAFDPEIGGSAYNQKFKDRVTITADKSTDTAYMELSSLRSEDTAVYYCTDYYGSSSGYFDVWGQGTTVTVSSGGGGSGGGGSGGGGSDIVMTQTPLSLPVTPGEPASISCRSSQSLEHNDGNTYLHWFLQKPGQSPQLLIYKVSNRFSGVPDRFSGSGSGTDFTLKISRVEAEDVGVYYCSQSTHVPFTFGQGTKLEIK
notes: also called S009-F3.80.22 humanized antibody VH1 + VL1a

These binders were tested against T1, human MSLN-FL-his protein (human, UniProt Q13421 296-580) (assay: ELISA, coated antigen, antibody 0.2 nM).
T1 construct: Made in HEK293E cells, purified on nickel column; also called hMSLN-FL-his; human MSLN full-length protein; not shown: His tag
Target sequence in this assay (Q13421 other isoform, or with tags, fused parts or gaps): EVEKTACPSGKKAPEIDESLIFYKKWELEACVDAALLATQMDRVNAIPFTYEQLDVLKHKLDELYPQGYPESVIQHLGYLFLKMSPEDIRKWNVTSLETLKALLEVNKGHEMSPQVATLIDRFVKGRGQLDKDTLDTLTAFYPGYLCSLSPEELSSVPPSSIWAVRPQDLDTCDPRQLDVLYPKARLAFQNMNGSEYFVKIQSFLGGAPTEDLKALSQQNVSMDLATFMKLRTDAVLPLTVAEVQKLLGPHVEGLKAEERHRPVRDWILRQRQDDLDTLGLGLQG
B1 showed an OD450 of 2.4.
With B2 the OD450 was 2.3.
B3 showed an OD450 of 1.54.
In the case of B4, the OD450 is reported as 2.14.

What follows are binders tested against T2, human MSLN-hFc recombinant protein (human, UniProt Q13421 296-580) (assay: SPR (Biacore 8K), MSLN-hFc captured, antibody injected).
T2 construct: Captured by an anti-human IgG antibody on the chip; also called human MSLN protein; Acro MSN-H5253
T2 sequence (Q13421 other isoform, or with tags, fused parts or gaps): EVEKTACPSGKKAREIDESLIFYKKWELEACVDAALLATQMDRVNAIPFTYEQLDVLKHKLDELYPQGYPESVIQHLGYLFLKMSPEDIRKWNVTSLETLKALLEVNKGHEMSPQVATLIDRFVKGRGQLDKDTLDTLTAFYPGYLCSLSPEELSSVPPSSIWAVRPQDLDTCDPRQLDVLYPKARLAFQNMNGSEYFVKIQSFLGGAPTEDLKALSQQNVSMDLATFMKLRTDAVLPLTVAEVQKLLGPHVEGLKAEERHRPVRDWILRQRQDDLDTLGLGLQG
For B5, the Kd was 159 nM, the koff was 0.000565 s⁻¹ and the kon was 3560 M⁻¹ s⁻¹.
For B6, the Kd was 20.9 nM, the koff was 0.000177 s⁻¹ and the kon was 8470 M⁻¹ s⁻¹.

Biological target: T3, monkey MSLN on HEK293T-monkey MSLN recombinant cells (monkey)
T3 construct: Full-length precursor as transfected; processing on the cell is not described; also called HEK293-monkey MSLN
T3 chain: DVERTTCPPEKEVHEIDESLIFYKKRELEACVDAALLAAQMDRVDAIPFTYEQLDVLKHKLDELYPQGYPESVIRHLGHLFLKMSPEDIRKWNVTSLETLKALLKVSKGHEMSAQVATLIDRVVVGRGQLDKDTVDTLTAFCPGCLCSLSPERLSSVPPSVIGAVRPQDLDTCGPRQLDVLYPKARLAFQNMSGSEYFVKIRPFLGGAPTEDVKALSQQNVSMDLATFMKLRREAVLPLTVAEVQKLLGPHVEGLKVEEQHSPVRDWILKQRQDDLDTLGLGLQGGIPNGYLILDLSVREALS
Assay: FACS, HEK293T-monkey MSLN cells
With B7 the Maximum_MFI was 303 MFI and the binding result was “no binding”.
With B5 the Maximum_MFI was 302 MFI and the binding result was “no binding”.
B8 was tested, and the Maximum_MFI was 278 MFI and the binding result was “no binding”.
In the case of B9, the Maximum_MFI is reported as 357 MFI and the binding result is reported as “no binding”.
With B10 the Maximum_MFI was 329 MFI and the binding result was “no binding”.
For B11, the Maximum_MFI was 317 MFI and the binding result was “no binding”.
B6 was tested, and the Maximum_MFI was 381 MFI and the binding result was “no binding”.
In the case of B12, the Maximum_MFI is reported as 338 MFI and the binding result is reported as “no binding”.
B13 was tested, and the Maximum_MFI was 330 MFI and the binding result was “no binding”.
With B14 the Maximum_MFI was 356 MFI and the binding result was “no binding”.

Biological target: T4, human MSLN-R1-his protein (human, UniProt Q13421 296-390)
T4 construct: Made in HEK293E cells, purified on nickel column; also called hMSLN-R1-his; human MSLN-R1 protein; not shown: His tag
T4 chain: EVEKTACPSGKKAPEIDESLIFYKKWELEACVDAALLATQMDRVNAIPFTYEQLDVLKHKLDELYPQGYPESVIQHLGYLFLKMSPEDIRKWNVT
Assay: ELISA, coated antigen, antibody 0.2 nM
B1 was tested, and the OD450 was 0.05.
B2 gave an OD450 of 0.06.
In the case of B3, the OD450 is reported as 0.05.
B4 gave an OD450 of 0.05.

Biological target: T4, human MSLN-R1-his protein
Assay: ELISA, coated antigen, antibody 0.002 nM
In the case of B1, the OD450 is reported as 0.05.
For B2, the OD450 was 0.06.
B3 was tested, and the OD450 was 0.05.
B4 showed an OD450 of 0.05.

Biological target: T4, human MSLN-R1-his protein
Assay: ELISA, coated antigen, antibody 200 nM
With B1 the OD450 was 0.08.
For B2, the OD450 was 0.1.
With B3 the OD450 was 0.06.
B4 gave an OD450 of 0.06.

Each binder was assayed against T1, human MSLN-FL-his protein (assay: ELISA, coated antigen, antibody 2 nM).
Work on B1 yielded an OD450 of 2.34.
B2 gave an OD450 of 2.5.
Binder B3 has an OD450 of 2.13.
With B4 the OD450 was 2.21.

These binders were tested against T1, human MSLN-FL-his protein (assay: ELISA, coated antigen, antibody 0.002 nM).
In the case of B1, the OD450 is reported as 0.84.
B2 gave an OD450 of 0.41.
In the case of B3, the OD450 is reported as 0.16.
With B4 the OD450 was 0.6.

Biological target: T4, human MSLN-R1-his protein
Assay: ELISA, coated antigen, antibody 2 nM
B1 gave an OD450 of 0.05.
B2 showed an OD450 of 0.08.
Binder B3 has an OD450 of 0.05.
Binder B4 has an OD450 of 0.05.

Each binder was assayed against T5, human MSLN-R3 on HEK293T-hMSLN-R3 recombinant cells (human, UniProt Q13421 487-606) (assay: FACS, HEK293T-hMSLN-R3 cells).
T5 construct: the C-terminal limit is uncertain; also called human MSLN-R3 membrane protein
T5 sequence (Q13421 495-614): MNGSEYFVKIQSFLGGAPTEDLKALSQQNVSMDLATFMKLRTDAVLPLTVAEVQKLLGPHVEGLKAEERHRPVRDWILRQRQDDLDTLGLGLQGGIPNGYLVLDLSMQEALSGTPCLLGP
B7 was tested, and the EC50 was 0.67 nM and the Maximum_MFI was 1790 MFI.
B5 was tested, and the EC50 was 5.29 nM and the Maximum_MFI was 1370 MFI.
With B8 the EC50 was 2.14 nM and the Maximum_MFI was 1700 MFI.
Binder B9 has a Maximum_MFI of 1410 MFI.
Binder B10 has an EC50 of 3.91 nM and a Maximum_MFI of 1530 MFI.
Binder B11 has an EC50 of 10.2 nM and a Maximum_MFI of 1400 MFI.
B6 gave an EC50 of 1.99 nM and a Maximum_MFI of 1800 MFI.
B12 gave an EC50 of 8.39 nM and a Maximum_MFI of 1440 MFI.
B13 was tested, and the EC50 was 4.41 nM and the Maximum_MFI was 1750 MFI.
In the case of B14, the EC50 is reported as 4.41 nM and the Maximum_MFI is reported as 1790 MFI.

Biological target: T4, human MSLN-R1-his protein
Assay: ELISA, coated antigen, antibody 20 nM
With B1 the OD450 was 0.06.
B2 showed an OD450 of 0.08.
Binder B3 has an OD450 of 0.06.
For B4, the OD450 was 0.06.

The binders below were run against T1, human MSLN-FL-his protein (assay: ELISA, coated antigen, antibody 20 nM).
B1 gave an OD450 of 2.49.
B2 showed an OD450 of 2.5.
Binder B3 has an OD450 of 2.35.
Work on B4 yielded an OD450 of 2.19.

Biological target: T4, human MSLN-R1-his protein
Assay: ELISA, coated antigen, antibody 0.02 nM
With B1 the OD450 was 0.05.
Binder B2 has an OD450 of 0.06.
B3 showed an OD450 of 0.05.
B4 was tested, and the OD450 was 0.05.

Biological target: T4, human MSLN-R1-his protein
Assay: ELISA, coated antigen, no antibody (blank)
Work on B1 yielded an OD450 of 0.07.
With B2 the OD450 was 0.07.
Work on B3 yielded an OD450 of 0.07.
Binder B4 has an OD450 of 0.06.

The binders below were run against T1, human MSLN-FL-his protein (assay: ELISA, coated antigen, antibody 0.02 nM).
B1 gave an OD450 of 1.78.
For B2, the OD450 was 1.28.
B3 showed an OD450 of 0.41.
Work on B4 yielded an OD450 of 1.44.

What follows are binders tested against T1, human MSLN-FL-his protein (assay: ELISA, coated antigen, antibody 200 nM).
With B1 the OD450 was 2.75.
B2 showed an OD450 of 2.91.
Work on B3 yielded an OD450 of 2.62.
B4 was tested, and the OD450 was 2.65.

Biological target: T4, human MSLN-R1-his protein
Assay: ELISA, coated antigen, antibody 0.0002 nM
B1 gave an OD450 of 0.05.
In the case of B2, the OD450 is reported as 0.06.
With B3 the OD450 was 0.05.
In the case of B4, the OD450 is reported as 0.05.

Each binder was assayed against T1, human MSLN-FL-his protein (assay: ELISA, coated antigen, antibody 0.0002 nM).
B1 showed an OD450 of 0.22.
For B2, the OD450 was 0.15.
For B3, the OD450 was 0.08.
B4 showed an OD450 of 0.15.

These binders were tested against T1, human MSLN-FL-his protein (assay: ELISA, coated antigen, no antibody (blank)).
Work on B1 yielded an OD450 of 0.08.
B2 gave an OD450 of 0.06.
For B3, the OD450 was 0.08.
In the case of B4, the OD450 is reported as 0.06.
